# Experimental data published in patent US20140328753A1.
# What was measured:
# [1] = molecular target: rabbit atheromatous protein extract; test: direct TR-FRET inhibition; six-fold excess of unlabeled atheromatous extract as competitor against biotinylated atheromatous extract, 16 h at 4 °C
# [2] = molecular target: unlabeled protein extract from untreated animals; test: direct TR-FRET inhibition; six-fold excess of unlabeled extract from untreated rabbits as competitor against biotinylated atheromatous extract, 16 h at 4 °C
inhibition of the DeltaF binding value [1] [%],inhibition of the DeltaF binding value [2] [%],Binder
75,50,H2.1 scFv antibody (scFv) scFv: EVQLVESGGSLVKPGGSLRLSCAASGFTFSNYSMNWVRQAPGKGLEWISSISGSSRYIYYADFVKGRFTISRDNATNSLYLQMNSLRAEDTAVYYCVRGGVDSSGDNCFDLWGRGTLVTVSSGGGGSGGGGSGGGGSQSVLTQPASVSGSPGQSITISCAGTSSDVGGYNYVSWYQQHPGKAPKLMIYEDSKRPSGVSNRFSGSKSGNTASLTISGLQAEDEADYYCTSYGSGATLVFGGGTKLAV
80,35,I8.1 scFv antibody (scFv) scFv: EVQLVESGGSLVKPGGSLRLSCAASGFTFSNYSMNWVRQAPGKGLEWISSISGSSRYIYYADFVKGRFTISRDNATNSLYLQMNSLRAEDTAVYYCVRNSFYASWSKDYSMEIWGRGTLVTVSSGGGGSGGGGSGGGGSQSVLTQPASVSGSPGQSITISCAGTSSDVGGYNYVSWYQQHPGKAPKLMIYEDSKRPSGVSNRFSGSKSGNTASLTISGLQAEDEADYYCQSWASRINIFGGGTKLAV
